Data published in publication PMC11507893 (bioRxiv, 2024).

Columns and labels:
[1] = molecular target: T1, FLAG-tagged Mnl1 (Mnl1-FLAG) (S. cerevisiae, UniProt P38888 21-796); assay: cryo-EM structure
T1 sequence (looked up): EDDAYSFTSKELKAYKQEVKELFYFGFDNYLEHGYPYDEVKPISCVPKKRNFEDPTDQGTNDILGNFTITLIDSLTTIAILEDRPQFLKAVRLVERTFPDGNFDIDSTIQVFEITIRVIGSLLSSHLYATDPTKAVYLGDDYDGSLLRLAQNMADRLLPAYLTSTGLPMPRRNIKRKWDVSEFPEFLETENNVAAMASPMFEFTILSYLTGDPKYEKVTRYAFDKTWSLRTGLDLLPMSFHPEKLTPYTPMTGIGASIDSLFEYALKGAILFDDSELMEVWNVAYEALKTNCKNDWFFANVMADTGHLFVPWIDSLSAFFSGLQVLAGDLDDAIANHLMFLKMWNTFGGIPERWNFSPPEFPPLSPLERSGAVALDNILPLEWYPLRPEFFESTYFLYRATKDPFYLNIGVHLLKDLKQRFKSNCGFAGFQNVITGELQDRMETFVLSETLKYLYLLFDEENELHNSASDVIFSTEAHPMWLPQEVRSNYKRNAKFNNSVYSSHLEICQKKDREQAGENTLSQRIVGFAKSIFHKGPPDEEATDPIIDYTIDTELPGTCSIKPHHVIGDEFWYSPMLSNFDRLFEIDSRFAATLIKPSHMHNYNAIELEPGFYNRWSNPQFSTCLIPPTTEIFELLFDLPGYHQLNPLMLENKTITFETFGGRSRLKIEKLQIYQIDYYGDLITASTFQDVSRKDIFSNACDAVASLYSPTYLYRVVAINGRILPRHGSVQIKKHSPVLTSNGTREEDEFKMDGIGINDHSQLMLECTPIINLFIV

[2] = molecular target: T2, Mnl1 mCTD mutant (L655N, F770Y, M772K), FLAG-tagged (S. cerevisiae, UniProt P38888 21-796, L655N | F770Y | M772K); assay: co-IP + SEC
T2 sequence (looked up): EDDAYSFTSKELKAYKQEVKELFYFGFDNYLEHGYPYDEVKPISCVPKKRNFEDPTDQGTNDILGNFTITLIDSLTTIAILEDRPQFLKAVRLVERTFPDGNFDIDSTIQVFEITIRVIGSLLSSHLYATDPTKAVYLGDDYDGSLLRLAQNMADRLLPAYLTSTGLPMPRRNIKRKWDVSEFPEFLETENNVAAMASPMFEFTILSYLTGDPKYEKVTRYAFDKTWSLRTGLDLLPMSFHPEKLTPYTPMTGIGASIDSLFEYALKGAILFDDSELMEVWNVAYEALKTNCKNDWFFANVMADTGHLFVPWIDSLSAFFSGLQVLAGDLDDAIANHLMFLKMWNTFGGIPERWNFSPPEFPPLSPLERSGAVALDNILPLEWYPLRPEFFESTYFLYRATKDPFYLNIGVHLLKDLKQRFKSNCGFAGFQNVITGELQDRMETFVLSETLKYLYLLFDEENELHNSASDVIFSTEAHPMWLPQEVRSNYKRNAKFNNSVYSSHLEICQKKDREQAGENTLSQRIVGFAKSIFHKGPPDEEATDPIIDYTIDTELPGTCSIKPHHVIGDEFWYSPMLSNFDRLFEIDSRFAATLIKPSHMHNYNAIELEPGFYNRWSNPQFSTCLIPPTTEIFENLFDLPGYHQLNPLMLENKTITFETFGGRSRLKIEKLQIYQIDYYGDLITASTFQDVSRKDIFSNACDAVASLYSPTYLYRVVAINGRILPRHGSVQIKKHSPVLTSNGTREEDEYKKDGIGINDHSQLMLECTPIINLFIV

Mnl1(C644S), FLAG-tagged = molecular target: T3, Mnl1(C644S), FLAG-tagged (S. cerevisiae, UniProt P38888 21-796, C644S); assay: cross-linking
T3 sequence (looked up): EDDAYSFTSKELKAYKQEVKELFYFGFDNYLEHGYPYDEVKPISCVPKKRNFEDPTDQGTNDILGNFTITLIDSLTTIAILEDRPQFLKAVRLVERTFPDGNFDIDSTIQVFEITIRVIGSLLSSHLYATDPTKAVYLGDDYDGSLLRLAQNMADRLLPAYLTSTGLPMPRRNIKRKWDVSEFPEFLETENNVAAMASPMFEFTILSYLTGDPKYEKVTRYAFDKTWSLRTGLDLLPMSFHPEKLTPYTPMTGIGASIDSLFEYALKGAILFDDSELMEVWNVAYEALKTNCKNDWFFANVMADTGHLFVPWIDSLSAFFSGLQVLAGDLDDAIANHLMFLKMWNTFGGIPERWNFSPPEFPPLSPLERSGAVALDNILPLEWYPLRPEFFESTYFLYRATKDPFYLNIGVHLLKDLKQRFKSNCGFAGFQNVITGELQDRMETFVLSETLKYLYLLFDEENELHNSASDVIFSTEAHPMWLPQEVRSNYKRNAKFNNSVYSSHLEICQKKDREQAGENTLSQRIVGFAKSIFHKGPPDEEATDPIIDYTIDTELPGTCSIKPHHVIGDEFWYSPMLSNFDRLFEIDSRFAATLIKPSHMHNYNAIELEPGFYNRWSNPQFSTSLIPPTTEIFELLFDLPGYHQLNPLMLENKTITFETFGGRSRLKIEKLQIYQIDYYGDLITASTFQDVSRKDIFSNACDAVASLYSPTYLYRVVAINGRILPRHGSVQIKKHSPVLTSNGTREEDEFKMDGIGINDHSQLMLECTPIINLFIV

Mnl1(C579S), FLAG-tagged = molecular target: T4, Mnl1(C579S), FLAG-tagged (S. cerevisiae, UniProt P38888 21-796, C579S); assay: cross-linking
T4 sequence (looked up): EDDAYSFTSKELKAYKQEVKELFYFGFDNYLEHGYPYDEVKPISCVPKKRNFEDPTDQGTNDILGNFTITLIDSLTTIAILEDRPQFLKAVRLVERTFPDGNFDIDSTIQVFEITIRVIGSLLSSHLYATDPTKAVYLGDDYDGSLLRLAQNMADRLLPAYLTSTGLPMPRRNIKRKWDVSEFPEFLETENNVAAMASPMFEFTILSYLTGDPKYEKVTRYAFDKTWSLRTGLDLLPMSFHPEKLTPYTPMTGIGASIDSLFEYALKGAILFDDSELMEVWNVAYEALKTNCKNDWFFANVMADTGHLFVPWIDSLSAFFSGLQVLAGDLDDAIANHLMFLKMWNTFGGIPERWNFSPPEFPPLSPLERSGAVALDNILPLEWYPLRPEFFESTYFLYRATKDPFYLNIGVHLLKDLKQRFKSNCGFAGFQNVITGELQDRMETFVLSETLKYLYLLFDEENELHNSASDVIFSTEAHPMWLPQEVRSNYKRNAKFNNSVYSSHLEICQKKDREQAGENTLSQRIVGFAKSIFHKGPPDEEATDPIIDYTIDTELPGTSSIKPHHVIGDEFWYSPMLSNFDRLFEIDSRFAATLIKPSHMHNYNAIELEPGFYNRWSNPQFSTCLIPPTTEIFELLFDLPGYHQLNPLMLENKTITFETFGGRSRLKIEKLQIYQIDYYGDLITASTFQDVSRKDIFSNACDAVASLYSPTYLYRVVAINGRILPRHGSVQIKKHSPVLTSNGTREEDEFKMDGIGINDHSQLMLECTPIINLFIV

Measured: binding result

B1: protein disulfide isomerase (Pdi1) (enzyme, S. cerevisiae, UniProt P17967 29-522, looked up)
chain: PEDSAVVKLATDSFNEYIQSHDLVLAEFFAPWCGHCKNMAPEYVKAAETLVEKNITLAQIDCTENQDLCMEHNIPGFPSLKIFKNSDVNNSIDYEGPRTAEAIVQFMIKQSQPAVAVVADLPAYLANETFVTPVIVQSGKIDADFNATFYSMANKHFNDYDFVSAENADDDFKLSIYLPSAMDEPVVYNGKKADIADADVFEKWLQVEALPYFGEIDGSVFAQYVESGLPLGYLFYNDEEELEEYKPLFTELAKKNRGLMNFVSIDARKFGRHAGNLNMKEQFPLFAIHDMTEDLKYGLPQLSEEAFDELSDKIVLESKAIESLVKDFLKGDASPIVKSQEIFENQDSSVFQLVGKNHDEIVNDPKKDVLVLYYAPWCGHCKRLAPTYQELADTYANATSDVLIAKLDHTENDVRGVVIEGYPTIVLYPGGKKSESVVYQGSRSLDSLFDFIKENGHFDVDGKALYEEAQEKAAEEADADAELADEEDAIHDEL
binds: all assays above
